Source: paper PMC9909341, “TLQP-21 is a low potency partial C3aR activator on human primary macrophages” (Frontiers in Immunology, 2023)

T1: Murine complement C3a receptor, endogenous on mouse bone marrow-derived macrophages (mouse (endogenous in BMDMs)) (UniProt O09047)
T1 sequence: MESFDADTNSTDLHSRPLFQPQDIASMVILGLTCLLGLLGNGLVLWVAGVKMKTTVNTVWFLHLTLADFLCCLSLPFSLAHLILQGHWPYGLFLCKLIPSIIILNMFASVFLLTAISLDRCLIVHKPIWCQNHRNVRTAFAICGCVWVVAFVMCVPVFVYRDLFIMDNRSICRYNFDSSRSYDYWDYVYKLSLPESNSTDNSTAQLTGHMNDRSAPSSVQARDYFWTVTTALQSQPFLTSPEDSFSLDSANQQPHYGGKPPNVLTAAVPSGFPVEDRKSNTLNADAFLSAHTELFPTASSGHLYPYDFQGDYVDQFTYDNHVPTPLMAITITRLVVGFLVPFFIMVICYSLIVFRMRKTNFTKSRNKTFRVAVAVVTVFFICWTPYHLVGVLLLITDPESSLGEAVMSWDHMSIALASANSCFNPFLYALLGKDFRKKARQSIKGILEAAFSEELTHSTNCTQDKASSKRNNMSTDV

T2: Human complement C3a receptor, endogenous on human monocyte-derived macrophages (human (endogenous in HMDMs)) (UniProt Q16581)
T2 sequence: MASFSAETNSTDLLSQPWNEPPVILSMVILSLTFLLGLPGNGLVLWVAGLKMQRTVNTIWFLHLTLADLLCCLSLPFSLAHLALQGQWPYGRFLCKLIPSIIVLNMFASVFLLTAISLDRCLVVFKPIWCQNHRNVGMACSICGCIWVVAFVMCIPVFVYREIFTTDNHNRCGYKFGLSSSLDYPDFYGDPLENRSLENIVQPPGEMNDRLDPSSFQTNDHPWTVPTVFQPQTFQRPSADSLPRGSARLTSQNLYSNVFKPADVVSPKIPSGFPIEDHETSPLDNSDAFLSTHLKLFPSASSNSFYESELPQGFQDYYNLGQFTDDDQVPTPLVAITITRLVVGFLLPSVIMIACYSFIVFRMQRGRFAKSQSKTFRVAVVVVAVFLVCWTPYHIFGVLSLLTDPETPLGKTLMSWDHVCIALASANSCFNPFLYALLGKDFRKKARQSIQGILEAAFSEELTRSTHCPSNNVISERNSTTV

T3: Human complement C3a receptor, stably expressed on CHO cells (human) (UniProt Q16581)
T3 sequence: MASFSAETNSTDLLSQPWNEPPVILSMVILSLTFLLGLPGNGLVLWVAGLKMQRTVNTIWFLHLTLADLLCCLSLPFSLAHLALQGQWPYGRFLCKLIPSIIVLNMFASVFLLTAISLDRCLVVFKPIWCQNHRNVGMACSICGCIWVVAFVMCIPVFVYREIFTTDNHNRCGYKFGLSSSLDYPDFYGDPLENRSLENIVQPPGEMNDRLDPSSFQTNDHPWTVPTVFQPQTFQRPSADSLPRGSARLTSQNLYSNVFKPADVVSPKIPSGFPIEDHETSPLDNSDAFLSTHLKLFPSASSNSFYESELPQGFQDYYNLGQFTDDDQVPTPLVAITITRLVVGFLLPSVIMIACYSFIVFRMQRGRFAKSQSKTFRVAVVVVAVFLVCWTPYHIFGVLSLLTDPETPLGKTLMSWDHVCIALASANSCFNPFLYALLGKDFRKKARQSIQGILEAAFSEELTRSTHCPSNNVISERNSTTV


What was measured:
[1] = biological target: T1, Murine complement C3a receptor, endogenous on mouse bone marrow-derived macrophages (mouse (endogenous in BMDMs))
BMDM (murine C3aR) = format: cell-based, mouse; settings: wild-type C57BL/6J BMDMs, 90,000/well; 10 min stimulation at RT; AlphaLISA p-ERK1/2; n = 3 mice; C3a is recombinant mouse C3a; read-out: EC50 (pERK1/2), BMDM
Protocol: Mouse bone marrow-derived macrophages (BMDMs) were obtained and cultured as previously described ([20], [21]). All experiments using mice were approved by the University of Queensland animal ethics committee. Wild-type and C3aR^-/- mice on a C57BL/6J genetic background (n = 3) were sacrificed by cervical dislocation. The tibia was removed and sterilised. Upon removal of both epiphyses, bone marrow cells were harvested by flushing the central cavity with complete RPMI-1640 medium using a 10 ml syringe attached to a 25-gauge needle. Cells were then cultured in complete RPMI-1640 medium (containing 10 % FBS, 100 IU/ml penicillin, 100 μg/ml streptomycin) supplemented with 100 ng/ml recombinant human macrophage colony stimulating factor on 10 mm square dishes. Mature adherent macrophages for assays were harvested on day 6-7 by gentle scraping.
Ligand-induced ERK1/2 phosphorylation was assessed using the AlphaLISA Surefire Ultra p-ERK1/2 (Thr202/Tyr204) kit (PerkinElmer, Melbourne, Australia) following the manufacturer’s protocol as previously described ([18], [20], [22]). Briefly, CHO-K1, CHO-C3aR, CHO-C5aR1, HMDMs (50,000/well) or BMDMs (90,000/well) were seeded in tissue culture-treated 96-well plates (Corning, Corning, USA) for 24 h and serum-starved overnight. All ligand dilutions were prepared in serum-free medium (SFM) containing 0.1% BSA. For inhibition assays, cells were pre-treated with the following ligands (5 µM SB290157, or respective concentrations of hC3a, mC3a, hC5a, hTLQP-21, and mTLQP-21) or the solvent-only control for 30 min before agonist (hC3a, hTLQP-21 and mTLQP-21) addition. The concentration and identity of the ligands are described in detail in the figure legends. For stimulation, cells were treated with ligands at the indicated concentrations for 10 min at RT and then immediately lysed using AlphaLISA lysis buffer on a microplate shaker (450 rpm, 10 min). For the detection of phospho-ERK1/2 content, cell lysate (5 μL/well) was transferred to a 384-well ProxiPlate (PerkinElmer, Melbourne, Australia) and added to the donor and acceptor reaction mix (2.5 μL/well, respectively), followed by a 2-h incubation at RT in the dark. On a Tecan Spark 20M (Tecan, Männedorf, Switzerland), the plate was measured using standard AlphaLISA settings.
All experiments were conducted in triplicates and repeated on three separate occasions unless otherwise specified. Data was analysed using GraphPad software (Prism 9.1). Data from each individual repeat was normalised accordingly (as specified in the figure legends) before being combined and expressed as mean ± standard error of the mean (S.E.M.) unless otherwise described. For all dose-response studies, logarithmic concentration-response curves were plotted using combined data and analysed to determine the respective potency values. Statistical analysis was performed using two-way ANOVA with Dunnett’s post hoc analysis. Donor-matched comparisons were made for HMDM experiments. Differences were deemed significant when p < 0.05.
Figure 4 TLQP-21 triggers ERK signalling through C3aR in murine bone marrow-derive macrophages. BMDMs (90,000/well) from wildtype mice (A) or with C3aR knockout mice (B), were serum-starved overnight and then stimulated with respective ligands at the indicated concentrations for 10 min. The phospho-ERK1/2 content in the cell lysate was measured and normalised to the medium only-treated levels before being combined. Data represent mean ± S.E.M. of triplicate measurements using cells from 3 mice (n = 3).

[2] = biological target: T2, Human complement C3a receptor, endogenous on human monocyte-derived macrophages (human (endogenous in HMDMs))
[3] = biological target: T3, Human complement C3a receptor, stably expressed on CHO cells (human)
[4] = biological target: T2, Human complement C3a receptor, endogenous on human monocyte-derived macrophages (human (endogenous in HMDMs)); remark: listed apart in the source

Chain of Recombinant mouse C3a (P01027 671-748): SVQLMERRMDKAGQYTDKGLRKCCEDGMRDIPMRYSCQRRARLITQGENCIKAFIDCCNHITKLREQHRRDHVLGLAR

Row | Molecule | EC50 (nM) of ERK1/2 phosphorylation in BMDMs [1] [nM] | EC50 (BMDM (murine C3aR)) [nM] | EC50 (nM) of ERK1/2 phosphorylation in HMDMs [2] [nM] | EC50 (nM) of ERK1/2 phosphorylation in CHO-C3aR cells [3] [nM] | hTLQP-21 induced ERK activation in HMDMs pre-treated with the C3aR antagonist SB290157 (5 μM, 30 min), % of the control level (% of the control level) [4] | ERK signalling in HMDMs by 10 μM mTLQP-21 under the control conditions of Figure 3B, % of the C3a induced activity (% of the C3a induced activity) [4] | mTLQP-21 induced ERK activation in HMDMs pre-treated with the C3aR antagonist SB290157 (5 μM, 30 min), % of the control level (% of the control level) [4]
1 | Recombinant mouse C3a (from UniProt P01027 671-748) (ligand) | 8.4 |  |  |  |  |  | 
2 | mC3a: Recombinant mouse C3a, purchased from R&D Systems |  | 8.4 |  |  |  |  | 

The remaining lines, values ahead:

Row | EC50 (nM) of ERK1/2 phosphorylation in BMDMs [1] [nM] | EC50 (BMDM (murine C3aR)) [nM] | EC50 (nM) of ERK1/2 phosphorylation in HMDMs [2] [nM] | EC50 (nM) of ERK1/2 phosphorylation in CHO-C3aR cells [3] [nM] | hTLQP-21 induced ERK activation in HMDMs pre-treated with the C3aR antagonist SB290157 (5 μM, 30 min), % of the control level (% of the control level) [4] | ERK signalling in HMDMs by 10 μM mTLQP-21 under the control conditions of Figure 3B, % of the C3a induced activity (% of the C3a induced activity) [4] | mTLQP-21 induced ERK activation in HMDMs pre-treated with the C3aR antagonist SB290157 (5 μM, 30 min), % of the control level (% of the control level) [4] | Molecule
3 | 401 |  | 14800 | 587 | 29 |  |  | TLQPPSALRRRHYHHALPPSR [Human TLQP-21]
4 | 96.5 |  | 2850 | 83.6 |  | 40 | 16 | TLQPPASSRRRHFHHALPPAR [Mouse TLQP-21]
